Assay results as given in patent publication US20230242902A1, “A HIGHLY ERROR-PRONE […] R[…] FOR TARGETED CONTINUOUS EVOLUTION IN VIVO” (The Regents of the University of California, priority 2017, published 2023).
“And” between values parts separate entries of the source, which are not always exact repeats. Equal entries are not always repeated.

B1: Y431H, L640Y, I777K, W814N: TP-DNAP1 variant, encoded by SEQ ID NO:8 (protein, listed as Kluyveromyces lactis)
chain: MDYKDKALNDLRNVYADFDSLPLDFRQILIKDRATLLQKEDVEKKILERQEDAKKYAEYLKQSEIPERISLPNIKRHKGVSISFEETSEDMVLEPRPFIFDGLNIRCFRRETIFSLKNKILNMVKESSSFKNVSRQSVSFMYFKIFNKGKVIASTKSVNIYEDKIDERLEDLCNNFDDVLKKIIDVTYGYESLFVSETYSYVIFYAKSIYFPQPRCVNNWGNNIPNILTFDSFKLFTANKNNVSCIKQCSRFLWQKDFNTLEEMIEYKNGNICIVTPQLHINDVRDIKSFNDIRLYSESPIKTFSVIDNTITYLFYFKEHLGVIFNITKSRHDRRVTKFSPLSKFSDVKNITVCFDIESYFDPEKESNQVNIPFICCASIIYNKVIGNIVDFEGRDCVAQMIEYVVDICGELNISSVELIAHNGGGYDFHHILSSMYNPAAIKNILIRNNSFISFNFAHDGVKFSVKDSYSFLLCSLANASKAFLNEETFKKTDFPHHDLKTADDLYKVYKEWSSVNTEINHVVEKEKLLITSEHIVNFTKNDKSKTLIEWSKDYCRNDVLVLSKVWLEFKNAVEDIFNCELVDQTMTLAGLSYKLFQANMPFDVELRHPNKEDYFNMREALIGGRCISVNGIYKDVLCYDVKSLYPASMAFYDQPYGSFKRVSSRPKDELGIYYVRVTPNRNNKSNFFPIRSHNKITYNNFEESTYIAWYTNVDIDIGLSEGHNIEYIPFDSYGNIGYSWSKKGKIFEKYIKDVLYKLKIKYEKQNNKVKRNVIKKIMNSLWGKFAQKWVNFEYFIKSEDDIDFESEEAYKINDTDFMLIKKIKESTYSSKPIQNGVFTLSWARYHMKSIWDAGAKEGAECIYSDTDSIFVHKEHFKKNAKFMLNGLKVPIIGSEVGQLELECEFDKLLCAGKKQYMGFYTYFQDGKPCIKEKKRFKGIPSNYIIPELYAHLLSGADKEAKIQFLKFRREWGSVKGYIENKTVKAT
B2: L474V: TP-DNAP2 variant (protein)
chain: MDYKDKALNDLRNVYADFDSLPLDFRQILIKDRATLLQKEDVEKKILERQEDAKKYAEYLKQSEIPERISLPNIKRHKGVSISFEETSEDMVLEPRPFIFDGLNIRCFRRETIFSLKNKILNMVKESSSFKNVSRQSVSFMYFKIFNKGKVIASTKSVNIYEDKIDERLEDLCNNFDDVLKKIIDVTYGYESLFVSETYSYVIFYAKSIYFPQPRCVNNWGNNIPNILTFDSFKLFTANKNNVSCIKQCSRFLWQKDFNTLEEMIEYKNGNICIVTPQLHINDVRDIKSFNDIRLYSESPIKTFSVIDNTITYLFYFKEHLGVIFNITKSRHDRRVTKFSPLSKFSDVKNITVCFDIESYFDPEKESNQVNIPFICCASIIYNKVIGNIVDFEGRDCVAQMIEYVVDICGELNISSVELIAHNGGGYDFHYILSSMYNPAAIKNILIRNNSFISFNFAHDGVKFSVKDSYSFLVCSLANASKAFLNEETFKKTDFPHHDLKTADDLYKVYKEWSSVNTEINHVVEKEKLLITSEHIVNFTKNDKSKTLIEWSKDYCRNDVLVLSKVWLEFKNAVEDIFNCELVDQTMTLAGLSYKLFQANMPFDVELRHPNKEDYFNMREALIGGRCISVNGIYKDVLCLDVKSLYPASMAFYDQPYGSFKRVSSRPKDELGIYYVRVTPNRNNKSNFFPIRSHNKITYNNFEESTYIAWYTNVDIDIGLSEGHNIEYIPFDSYGNIGYSWSKKGKIFEKYIKDVLYKLKIKYEKQNNKVKRNVIKIIMNSLWGKFAQKWVNFEYFIKSEDDIDFESEEAYKIWDTDFMLIKKIKESTYSSKPIQNGVFTLSWARYHMKSIWDAGAKEGAECIYSDTDSIFVHKEHFKKNAKFMLNGLKVPIIGSEVGQLELECEFDKLLCAGKKQYMGFYTYFQDGKPCIKEKKRFKGIPSNYIIPELYAHLLSGADKEAKIQFLKFRREWGSVKGYIENKTVKAT
B3: Y424E: TP-DNAP2 variant (protein, listed as Kluyveromyces lactis)
chain: MNDELAFLNSQIDDYSDDIEFLRTEVFRINRYSKSIYSLMKNSSKEAIKETIEFNKYGQEIHSKIKEKEISLIEAIKLMEKKYKYLRSLNKTKDKSKKKKIHTKDIETLKTIYKTKADFDIRNFKNAETFTYENYSLLIPSEKELIDLIPEIEEDYSYYFYVSLTITGPTIFGGVTRKVPIIDTYGDINKDFYNKIKENITKVLDRVPFYEEKESEIICKKVLITLTVNKWESIDKWYKNVKSKSKKFKDFTLFLASDTSKNCVQQCVEYLGGKWNTNYSLEKMIPQQKIVTYIPLLMDIQYVQSMEDLISDFDEPNTDCKNIARLLKWNGHMGVITKIDKDVKINRIQRKRIIDVENKEVKEVFFDIESFSDETKHQIPYLICWSYLGELYYRTGKNCIKEFVEEILSYNVDIILYAWYGSGEDYQHVLPYMKSKCIKDKYIIKNNMITYGELYYENAIIYLKDPYLFILTSLDKASKAFNVINKGEFPHSIIHSWEDLNKILPNWVKIQKRMIEYKDDNKLNIYYKNIEIFENDRNYNTILENAIEYCKVDVLAMEKVWIKFKKLLEKNLNITVSVKTFTLSQLSMKIMESKLPKYVKLYVPTLEEYSKIRNAIYGGRVISKNGIYEENIVYADVVSLYPSAMKLLKHSYGKPKLVDYIDFEKHGIYRVTLLNKHDQEPKNYLNFVPRRINRKLTWEWFKIHEGWYHTYDLIIAKSEGFDIYCHEGFEYPEKDYIFNDFIDTLYSMKETHTACSCEEQPCPIRMVAKIALNGGGYGKFVQKPIDKEIYIVKRDVVAGECDKLQENENGEICIGKRLVKRPLFYNLDSENYDKMIIEKEDEPIYSTQCGISILSASRYRLYKLCKQFENIDIIYSDTDSIFVKQKSVDWELFKSKCGSELGQLDSTIDDTKNAIISKMYIGGAKMYAFEYLNNKNKLITKLHCKGVPNYMLSLNQFKYLMESPDNTIAYKFEIIRRKLVNVITKDLIKDIKQT

Assays:
Type in all cases: cell-based, S. cerevisiae
p1-encoded leu2 (Q180*) = experiment: Large-scale p1 fluctuation tests of p1-encoded leu2 (Q180*), per-base substitution rate; details: per-base substitution rate, p1-encoded leu2 (Q180*); measurements taken after 90 generations
Procedure, shortened: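 Per-base substitution rate = phenotypic mutation rate (maximum likelihood, per cell) divided by flow-cytometry p1 copy number and by 2.33 ways to revert the ochre codon. Revertants on leucine-free medium; replicates with likely pre-existing mutants dropped.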

genomic URA3 gene = experiment: Fluctuation tests of the genomic URA3 gene in the presence of TP-DNAP1 variants; details: URA3 locus, strain harbouring p1 and the TP-DNAP1 variant
Method: Fluctuation tests of the genomic URA3 gene were performed to determine genomic per-base substitution rates, as previously described (Ravikumar et al., 2014). Fluctuation data were analyzed by the maximum likelihood method, as described for large-scale p1 fluctuation tests. Phenotypic mutation rates were divided by the target size for loss of function of URA3 via base pair substitution (Lang et al., 2008), to yield per-base substitution rates. 95% confidence intervals were similarly scaled by these factors. All data related to genomic URA3 fluctuation tests are fully described in Table 5.

p2-encoded leu2* = experiment: p2 leu2* fluctuation tests in GA-Y021 (p2 mutation rate reporter strain); details: for Per-base substitution rate pf p2: TP-DNAP2 variant in trans, wt TP-DNAP2 in cis, 36 replicates, (95% C.I.); for Fold increase: p2 substitution rate over no variant in trans
Source text: For fluctuation tests used to measure p2 mutation rates, leu2* served as a marker for detecting mutational events. leu2* is a disabled version of LEU2, where Q180 is replaced with a TAA stop codon. Q180 is a permissive site where mutation to any other codon other than TAG and TGA results in functional reversion to LEU2. These mutational events can be detected by plating scores of parallel cultures on medium lacking leucine and counting the number distribution of functional LEU2 mutants.
For TP-DNAP2 library screening, each library member was subjected to small-scale leu2* fluctuation tests with six replicates. 190 library members from each yeast library transformation were arrayed and inoculated into liquid SC medium lacking uracil and histidine, and passaged three times at 1:10,000 dilutions. mKate2 fluorescence was measured at every passage on a microplate reader (TECAN Infinite® 200 PRO, settings: λex=588, λem=633) to track p2 copy number stabilization. To perform fluctuation tests, each library member was diluted 1:10,000 into liquid SC medium buffered to pH 5.8 and lacking uracil, histidine, tryptophan, and dilutions were split into six 100 μL replicates. Cultures were grown for 48 hours at 30° C. to reach saturation. Saturated cultures were washed with 200 μL 0.9% NaCl to remove residual leucine and resuspended in 35 μL of 0.9% NaCl. 10 μL of this resuspension was spot plated onto solid SC medium buffered to pH 5.8 and lacking uracil, histidine, tryptophan and leucine. Spot plates were allowed to dry and incubated at 30° C. Colonies were counted after 5 days. Colony counts were used to calculate the expected number of LEU2 functional mutants (m), using the p0 method (Foster, 2006, Methods Enzymol, 409:195-213).
To precisely measure p1 and p2 per-base substitution mutation rates, several modifications were made to the small-scale protocol. First, 36 replicates were performed for reconfirmation of candidate TP-DNAP2 mutators, and 48 replicates for genomic and mutual orthogonality experiments. Titers were also determined for each strain after spot plating by pooling the residual volume from 4 replicates and plating dilutions on YPD. The expected number of LEU2 functional mutants (m) was determined by the Ma-Sandri-Sarkar maximum likelihood estimator (as calculated by the FALCOR tool and corrected for partial plating (Foster, 2006, Methods Enzymol, 409:195-213; Sarkar et al., 1992, Genetica, 85:173-179; Hall et al., 2009, Bioinformatics, 25:1564-1565). The mean mKate2 fluorescence was determined from 50,000 event counts on Attune™ NxT Flow Cytometer and converted to p2 copy number by using a calibration curve. To determine per-base substitution rates, the corrected m was normalized to the average cell titer, the p2 copy number, and the target size for functional leu2* reversion (2.33 bp). 95% confidence intervals were similarly scaled.
To identify error-prone TP-DNAP2s, a small library of TP-DNAP2s diversified at locations hypothesized to be responsible for DNAP fidelity was screened. […] Four distinct site-saturation mutagenesis libraries were generated, each diversifying S370, Y424, L474, or F882 in TP-DNAP2 encoded on pGA55-reTP-DNAP2. Due to unsuccessful attempts to generate a strain with a full deletion of p2-encoded TP-DNAP2 and simultaneous integration of mKate, URA3, and leu2*, each library was transformed into GA-Y021 for convenient screening. However, since GA-Y021 still encodes wt TP-DNAP2 on p2-delORF1-mUL*, p2 mutation rates measured in this format are the result of in tandem replication of p2 by wt TP-DNAP2 and each TP-DNAP2 variant encoded in trans. 6-fold coverage of each library was maintained by picking 190 yeast colonies and passaging under selection for URA3 to stabilize the copy number of p2-delORF1-mUL* in the presence of the newly introduced TP-DNAP2 variants. […]

Row | Molecule | Mutation rate (s.p.b.) (p1-encoded leu2 (Q180*)) | Yeast genomic substitution mutation rate (genomic URA3 gene) | Per-base substitution rate pf p2 (p2-encoded leu2*) | Fold increase (p2-encoded leu2*)
1 | B1 | 2.33 × 10^−6 s.p.b. and 4.29 × 10^−6 s.p.b. and 3.24 × 10^−6 s.p.b. | 2.68 × 10^−10 s.p.b. |  | 
2 | B2 |  |  | 5.76 (2.88-9.33) ×10^−10 | 1.0
3 | B3 |  |  | 73.3 (55.2-93.3) ×10^−10 | 12.3
